Drawing on patent US8852954, “Nucleic acid molecule having binding affinity to rodent-derived IgG antibody, binder, detection reagent, and detection kit” (NEC Solution Innovators, Ltd.), this text covers Kd for seven molecules.

Common to all, as to settings: chain copies: 2 heavy + 2 light chains (inferred); label: 5'-biotin; stem-loop (predicted)
For series [1], the target named is T1, mouse IgG3 (subtype 3 IgG antibody) (Mus musculus, UniProt P03987-2 P03987-2:1-329). Kind of series: SPR; BIACORE 3000, 1:1 Langmuir. On the procedure: (§1) The analysis of binding was performed using BIACORE 3000 (produced by GE Healthcare) according to its instruction manual. Further, from the signal intensity (RU: Resonance Unit) measured using the BIACORE, the analysis was performed with 1:1 Langmuir binding model using BIAevaluation software, and the dissociation constant between each of the aptamers and each of the mouse IgG antibodies was obtained. The conditions, method, and the like of the measurement using the BIACORE were according to the following documents.
(§2) FIGS. 5 to 7 are graphs showing the change in the signal intensity over time. […] Further, in each of the graphs, the vertical axis indicates the signal intensity (RU) measured using the BIACORE and the horizontal axis indicates the analysis time (sec). In the horizontal axis, "100 seconds" is the time when the injection of a target to be analyzed to a flow cell at the flow rate of 20 μL/min is started. The injection was maintained for 2 minutes (120 seconds), and then a running buffer was sent for 3 minutes (180 seconds) to obtain the sensorgrams showing the interaction between the aptamers and IgG. The global fitting analysis was performed and the sensorgrams were obtained under different target concentration conditions for obtaining correct Kd values.
Background: In SPR one partner is held on a chip, and binding of the other changes the refractive index at the surface.

The target in series [2] is T2, mouse IgG2a (subtype 2a IgG antibody) (Mus musculus, UniProt P01863 P01863:1-330). The series is described as follows: SPR; BIACORE 3000, 1:1 Langmuir. On the procedure: as §1, §2
Series [3] concerns the target T1, mouse IgG3 (subtype 3 IgG antibody). Kind of series: SPR; second measurement (Example 3). How it is done: as §1
(§3) The experiment was performed in the same manner as in Example 2 except that MIG-m034, MIG-m035, MIG-m036, MIG-m037, and MIG-m040 were used as aptamers. FIGS. 8 to 10 are graphs showing the change in the signal intensity over time and respectively show the result obtained using the subtype 1 mouse IgG, the result obtained using the subtype 2a mouse IgG, and the result obtained using the subtype 3 mouse IgG. […] The results summarized in Table 3 tell that these aptamers each have high general versatility as a secondary antibody reagent and are good in the binding force. Further, since it was considered that the base pair in the stem region and U adjacent thereto are not involved in the binding of mouse IgG from Example 1, a clone having a systematic modified base was produced to obtain the Kd value. […]

Series [4] concerns the target T2, mouse IgG2a (subtype 2a IgG antibody). The series is described as follows: SPR; second measurement (Example 3). On the procedure:
as §1, §3

Series [5] concerns the target T1, mouse IgG3 (subtype 3 IgG antibody). Kind of series: SPR; BIACORE 3000, 1:1 Langmuir. How it is done: as §1
(§4) The experiment was performed in the same manner as in Example 2 except that MIG-m034, MIG-m035, MIG-m036, MIG-m037, and MIG-m040 were used as aptamers. FIGS. 8 to 10 are graphs showing the change in the signal intensity over time and respectively show the result obtained using the subtype 1 mouse IgG, the result obtained using the subtype 2a mouse IgG, and the result obtained using the subtype 3 mouse IgG. […] The results summarized in Table 3 tell that these aptamers each have high general versatility as a secondary antibody reagent and are good in the binding force. Further, since it was considered that the base pair in the stem region and U adjacent thereto are not involved in the binding of mouse IgG from Example 1, a clone having a systematic modified base was produced to obtain the Kd value. Since all the clones have substantially the same binding force to each of the mouse antibody subtypes, it was considered that the stem region was not involved in the binding with respect to all the subtypes and also that all the aptamers have the same binding mode to each of the subtypes.
The source holds these as a separate data set.

Series [6] has as its target T2, mouse IgG2a (subtype 2a IgG antibody). Kind of series: SPR; BIACORE 3000, 1:1 Langmuir. On the procedure:
as §1, §4
This is another data set of the same source.

T1 sequence (P03987 other isoform, or with tags, fused parts or gaps): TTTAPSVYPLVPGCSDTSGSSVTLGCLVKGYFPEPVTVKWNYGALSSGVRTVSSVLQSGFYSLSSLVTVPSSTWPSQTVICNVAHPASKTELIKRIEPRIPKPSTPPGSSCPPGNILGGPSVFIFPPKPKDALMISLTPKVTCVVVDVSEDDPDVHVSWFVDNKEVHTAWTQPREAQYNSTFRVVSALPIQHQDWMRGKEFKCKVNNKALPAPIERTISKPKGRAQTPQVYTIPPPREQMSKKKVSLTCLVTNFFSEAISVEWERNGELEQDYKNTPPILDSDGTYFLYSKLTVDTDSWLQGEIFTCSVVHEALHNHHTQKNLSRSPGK
T2 sequence (P01863 whole entry, one chain of several): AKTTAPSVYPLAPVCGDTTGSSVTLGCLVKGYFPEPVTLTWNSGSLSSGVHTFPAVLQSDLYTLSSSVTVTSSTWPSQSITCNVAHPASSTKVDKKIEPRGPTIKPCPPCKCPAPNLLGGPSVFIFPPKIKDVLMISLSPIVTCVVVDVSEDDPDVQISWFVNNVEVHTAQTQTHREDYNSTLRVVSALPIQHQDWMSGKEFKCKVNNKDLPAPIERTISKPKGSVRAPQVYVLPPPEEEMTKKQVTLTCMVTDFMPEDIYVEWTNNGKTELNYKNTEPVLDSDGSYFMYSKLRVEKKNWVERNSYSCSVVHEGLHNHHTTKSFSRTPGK

B1: MIG-m034 (mixed)
mixed: AAAAACGCUGAAGAGAAGACGGAAGGAGACGAAGCGT
modifications: RNA with 5'-dA5 (1-5), LNA at C6 G7 C35 G36, 3'-dT37
As for B1, the dissociation constant Kd in series [1] is 8.8 nM; in series [2] it was 0.995 nM; in series [3], 8.33 nM; in series [4], 1.09 nM.

B2: MIG-m042 (mixed)
mixed: AAAAACGCUGAAGAGAAGACGGAAGGAGACGAAGCGT
modifications: RNA with 5'-dA5 (1-5), LNA at C6 G7 C35 G36, 2'-OMe U9, 3'-dT37
Take B2: the dissociation constant Kd in series [1] is 5.57 nM; in series [2], 0.436 nM.

B3: MIG-m035 (mixed)
mixed: AAAAAGCUGAAGAGAAGACGGAAGGAGACGAAGCT
modifications: RNA with 5'-dA5 (1-5), LNA at G6 C7 G33 C34, 3'-dT35
Take B3: the Kd in series [5] is 139 nM; in series [6] it was 1.92 nM.

B4: MIG-m036 (mixed)
RNA: AAAAAGCGCUGAAGAGAAGACGGAAGGAGACGAAGCGC
modifications: RNA with 5'-dA5 (1-5), DNA at G6 C7 G37 C38
As for B4, the results for the dissociation constant Kd in series [5] and in series [6] were 13.8 nM and 4.61 nM, respectively.

B5: MIG-m037 (mixed)
RNA: AAAAAGCGCUGAAGAGAAGACGGAAGGAGACGAAGCGC
modifications: RNA with 5'-dA5 (1-5), DNA at 6-9 and 35-38
As for B5, the equilibrium dissociation constant (Kd) in series [5] is 9.85 nM; in series [6], 3.7 nM.

B6: MIG-m040 (mixed)
RNA: AAAAAGCGCUGAAGAGAAGACGGAAGGAGACGAAGCGC
modifications: RNA with 5'-dA5 (1-5), 2'-OMe U10
With B6, the Kd in series [5] was 3.46 nM; in series [6], 1.23 nM.

B7: MIG-m041 (mixed)
RNA: AAAAAGCGCUGAAGAGAAGACGGAAGGAGACGAAGCGC
modifications: RNA with 5'-dA5 (1-5), DNA at 6-9 and 35-38, 2'-OMe U10
Take B7: the figures for the Kd in series [1] and in series [2] were 8.4 nM and 0.959 nM, respectively.

Broadly, the Kd is the equilibrium constant for the complex coming apart.
